From patent US20090158455A1, “COMPOSITIONS AND METHODS FOR MODULATING LYSINE PRODUCTION” (priority 2005, published 2009) come the findings set out here.

Common to all, as to type: biochemical
For data set [1], the target named is T1, Arabidopsis LL-DAP-AT (At4g33680) (Arabidopsis thaliana, UniProt Q93ZN9).
T1 construct: The recombinant protein lacks the first 39 amino acids of the At4g33680 protein; hexa-His (N); S-TAG (N); made in house; host or cells: E. coli BL21-CodonPlus-RIPL
Kind of data set: Quantitative reverse assay coupled to Ddh, pure recombinant LL-DAP-AT. As to conditions: 30° C. The procedure: (§1) For enzyme assays of crude proteins, extracts were prepared by grinding tissue in liquid nitrogen with 100 mM HEPESKOH (pH 7.6), followed by centrifugation at 10,000 g for 15 min, and then buffer exchange using an Amicon Ultra 30,000 MWCO filter. […] Reactions were incubated at 30° C. and the ΔA (440 nm) measured continuously. […] The reaction was incubated at 30° C., and the decrease in A340 was measured. […] The reaction was run to completion, determined by monitoring the increase in A340.
For this reason quantitative coupled assays were developed to assess the enzyme activity in both the reverse and forward directions. […] The reaction sequence is shown in Scheme 1.

Data set [2] deals with LL-DAP transaminase. Kind of data set: Quantitative forward assay of purified microbial LL-DAP transaminases. The procedure: (§2) Enzyme assays were performed as described above in Examples I and II.
(§3) The catalytic properties of sll0480, BF2643, Dhaf—3980, MTH52, and SfumDRAFT0821 were studied in greater detail using purified enzymes to determine their kinetic constants using quantitative forward and reverse assays.

The next data set deals with T2, LL-DAP-AT (At4g33680) (Arabidopsis thaliana, UniProt Q93ZN9).
T2 construct: The recombinant protein lacks the first 39 amino acids of the At4g33680 protein; hexa-His (N); S-TAG (N); made in house; host or cells: E. coli BL21-CodonPlus-RIPL
Kind of data set: Reverse OAB assay of pure recombinant LL-DAP-AT, temperature and pH optimum. As to conditions: data not shown. The procedure: as §1, with “A340. […] The kinetic constants were calculated by nonlinear regression analysis using GraphPad Prizm version 4.03.” for “A340.”
The kinetic properties of the pure recombinant At4g33680 enzyme were studied using several different assays. […] Most aminotransferases require pyridoxal phosphate as a cofactor (Liepman and Olsen, 2004). The Lys residue at position 305 in the At4g33680 protein is predicted to be the pyridoxal phosphate ligand. […] The enzyme was also found to show a temperature optimum of 36° C. and a pH optimum of 7.6 when HEPESKOH buffer was used, and 7.9 when Tris HCl buffer was used (data not shown).

Data set [3] has as its target T1, Arabidopsis LL-DAP-AT (At4g33680). As to the kind of experiment: Quantitative forward assay coupled to 2-OG dehydrogenase, pure recombinant LL-DAP-AT. As to conditions: for Vmax: forward assay; for Forward (biosynthetic) activity disfavored compared with the reverse activity: initial rate, forward versus reverse. The procedure: FIG. 4. […] The forward assay was conducted in two steps. […] The aminotransferase was assayed in the second step.
as §1, with “A340. […] The kinetic constants were calculated by nonlinear regression analysis using GraphPad Prizm version 4.03.” for “A340.”
The overall reaction series is shown in Scheme 2.
Thio-NADH has an absorbance maximum at 398 nm, which can be discerned from NADPH, which has an absorbance maximum at 340 nm. FIG. 4 illustrates such a reaction. […] Two plots are shown using 0.55 and 0.055 mM m-DAP.

Data set [4] concerns LL-DAP transaminase. Kind of data set: Quantitative reverse assay of purified microbial LL-DAP transaminases. As to conditions: reverse. Here is the method:
as §2, §3

Data set [5] concerns the target T3, CT390 (Chlamydia trachomatis serovar D, UniProt O84395).
T3 construct: His-Tag (N); made in house; host or cells: E. coli
Kind of data set: Quantitative reverse assay of pure CT390. As to conditions: reverse assay, saturating substrates.

Data set [6] deals with T3, CT390. As to the kind of experiment: Quantitative forward assay of pure CT390. As to conditions: saturating substrates. Here is the method: All enzyme assays were carried out essentially as described in Example I. Incubation temperature was 30° C. Kinetic constants were determined by varying substrate concentrations while keeping the co-substrate level constant at the concentration described below. Kinetic data were analyzed by non-linear regression analysis using GraphPad Prizm Version 4.03.
Quantitative assay of the physiologically forward reaction was carried out sequentially in a pre-reaction to generate THDP from m-DAP followed by an LL-DAP aminotransferase assay. […] The pre-reaction was run to completion, monitored by the increase in absorbance at 340 nm resulting from NADPH formation. The aminotransferase reaction was monitored at 398 nm to measure the formation of thioNADH. […] Subsequently, the aminotransferase assay was initiated by addition of CT390, bringing the total reaction volume to 1 mL.

B1: Arabidopsis LL-DAP-AT: LL-DAP aminotransferase encoded by Arabidopsis locus At4g33680 (SEQ ID NO: 7), recombinant protein (protein, listed as Arabidopsis thaliana)
chain: MSSTHQLVSSMISSSSSTFLAPSNFNLRTRNACLPMAKRVNTCKCVATPQEKIEYKTKVSRNSNMSKLQAGYLFPEIARRRSAHLLKYPDAQVISLGIGDTTEPIPEVITSAMAKKAHELSTIEGYSGYGAEQGAKPLRAAIAKTFYGGLGIGDDDVFVSDGAKCDISRLQVMFGSNVTIAVQDPSYPAYVDSSVIMGQTGQFNTDVQKYGNIEYMRCTPENGFFPDLSTVGRTDIIFFCSPNNPTGAAATREQLTQLVEFAKKNGSIIVYDSAYAMYMSDDNPRSIFEIPGAEEVAMETASFSKYAGFTGVRLGWTVIPKKLLYSDGFPVAKDFNRIICTCFNGASNISQAGALACLTPEGLEAMHKVIGFYKENTNIIIDTFTSLGYDVYGGKNAPYVWVHFPNQSSWDVFAEILEKTHVVTTPGSGFGPGGEGFVRVSAFGHRENILEACRRFKQLYK
For the molecule B1, the Vmax in data set [1] (pH 7.5) is listed as 22.3 ± 0.3 μmol min^−1 mg^−1 protein; in data set [1] (pH 7.5, listed as LL-DAP-AT), 22.3 μmol min^−1 mg^−1 protein; in data set [3], 0.38 ± 0.01 μmol min^−1 mg^−1 protein; in data set [3] (listed as LL-DAP-AT) it was 0.38 μmol min^−1 mg^−1 protein. For the same molecule, in the data set on LL-DAP transaminase [2], the “Vmax F” value was determined as 0.8 µmol/min/mg. The pH optimum with LL-DAP-AT (At4g33680) (HEPESKOH buffer) stood at 7.6; with LL-DAP-AT (At4g33680) (Tris HCl buffer), 7.9. Also, in the data set with LL-DAP-AT (At4g33680), the Temperature optimum is 36 °C. Further, the figures for the “Forward (biosynthetic) activity disfavored compared with the reverse activity” value in data set [3] and in data set [3] (listed as A. thaliana enzyme) were 50 fold and “approximately 60 fold”, respectively. The “Vmax R” value in the data set on LL-DAP transaminase [4] was found to be 12 µmol/min/mg.

B2: CT390: LL-DAP aminotransferase encoded by ct390 of Chlamydia trachomatis (SEQ ID NO: 9), His-Tag fusion (protein, listed as Chlamydia trachomatis)
chain: MKRNPHFVSLTKNYLFADLQKRVAQFRLENPQHTVINLSIGDTTQPLNASVAEAFASSIARLSSPTTCRGYGPDFGLPALRQKLSEDFYRGFVDAKEIFISDGAKVDLFRLLSFFGPNQTVAIQDPSYPAYLDIARLTGAKEIIALPCLQENAFFPEFPEDTHIDILCLCSPNNPTGTVLNKDQLRAIVHYAIEHEILILFDAAYSTFISDPSLPKSIFEIPDARFCAIEINSFSKPLGFAGIRLGWTVIPQELTYADGHFVIQDWERFLSTTFNGASIPAQEAGVAGLSILPQLEAIHYYRENSDLLRKALLATGFEVFGGEHAPYLWVKPTQANISDRDLFDFFLREYHIAITPGIGFGRSGSGFVRFSSLGKREDILAACERLQMAPALQS
modifications: His-Tag
Consider B2, for which the Vmax in the data set with CT390 [5] is on record as 0.59 μmol min^−1mg proteins^−1; with CT390 [6], 0.38 μmol min^−1mg proteins^−1.
